We go through two variants from IntAct's records for PubMed 18688255.

B1: Cleavage and polyadenylation specificity factor subunit 2 (Homo sapiens), Q9P2I0 (parent)
chain: MTSIIKLTTLSGVQEESALCYLLQVDEFRFLLDCGWDEHFSMDIIDSLRKHVHQIDAVLLSHPDPLHLGALPYAVGKLGLNCAIYATIPVYKMGQMFMYDLYQSRHNTEDFTLFTLDDVDAAFDKIQQLKFSQIVNLKGKGHGLSITPLPAGHMIGGTIWKIVKDGEEEIVYAVDFNHKREIHLNGCSLEMLSRPSLLITDSFNATYVQPRRKQRDEQLLTNVLETLRGDGNVLIAVDTAGRVLELAQLLDQIWRTKDAGLGVYSLALLNNVSYNVVEFSKSQVEWMSDKLMRCFEDKRNNPFQFRHLSLCHGLSDLARVPSPKVVLASQPDLECGFSRDLFIQWCQDPKNSIILTYRTTPGTLARFLIDNPSEKITEIELRKRVKLEGKELEEYLEKEKLKKEAAKKLEQSKEADIDSSDESDIEEDIDQPSAHKTKHDLMMKGEGSRKGSFFKQAKKSYPMFPAPEERIKWDEYGEIIKPEDFLVPELQATEEEKSKLESGLTNGDEPMDQDLSDVPTKCISTTESIEIKARVTYIDYEGRSDGDSIKKIINQMKPRQLIIVHGPPEASQDLAECCRAFGGKDIKVYMPKLHETVDATSETHIYQVRLKDSLVSSLQFCKAKDAELAWIDGVLDMRVSKVDTGVILEEGELKDDGEDSEMQVEAPSDSSVIAQQKAMKSLFGDDEKETGEESEIIPTLEPLPPHEVPGHQSVFMNEPRLSDFKQVLLREGIQAEFVGGVLVCNNQVAVRRTETGRIGLEGCLCQDFYRIRDLLYEQYAIV
partner: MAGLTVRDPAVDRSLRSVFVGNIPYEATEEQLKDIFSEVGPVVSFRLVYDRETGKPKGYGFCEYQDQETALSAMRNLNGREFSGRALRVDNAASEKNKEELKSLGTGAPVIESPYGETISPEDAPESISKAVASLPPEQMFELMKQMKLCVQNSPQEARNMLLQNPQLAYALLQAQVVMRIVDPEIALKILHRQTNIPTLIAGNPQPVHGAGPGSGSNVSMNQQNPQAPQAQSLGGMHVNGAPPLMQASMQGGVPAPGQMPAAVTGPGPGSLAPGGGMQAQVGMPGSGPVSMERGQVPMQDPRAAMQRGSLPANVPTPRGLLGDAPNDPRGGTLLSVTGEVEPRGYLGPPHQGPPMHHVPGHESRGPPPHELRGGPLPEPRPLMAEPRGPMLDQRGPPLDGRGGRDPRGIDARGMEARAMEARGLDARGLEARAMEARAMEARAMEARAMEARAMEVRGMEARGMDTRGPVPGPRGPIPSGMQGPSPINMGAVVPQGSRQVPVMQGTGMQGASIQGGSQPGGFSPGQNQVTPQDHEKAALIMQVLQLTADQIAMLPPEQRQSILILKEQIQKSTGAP
B2: Cleavage and polyadenylation specificity factor subunit 2 (Homo sapiens), Q9P2I0 (parent)
chain: B1 chain
partner: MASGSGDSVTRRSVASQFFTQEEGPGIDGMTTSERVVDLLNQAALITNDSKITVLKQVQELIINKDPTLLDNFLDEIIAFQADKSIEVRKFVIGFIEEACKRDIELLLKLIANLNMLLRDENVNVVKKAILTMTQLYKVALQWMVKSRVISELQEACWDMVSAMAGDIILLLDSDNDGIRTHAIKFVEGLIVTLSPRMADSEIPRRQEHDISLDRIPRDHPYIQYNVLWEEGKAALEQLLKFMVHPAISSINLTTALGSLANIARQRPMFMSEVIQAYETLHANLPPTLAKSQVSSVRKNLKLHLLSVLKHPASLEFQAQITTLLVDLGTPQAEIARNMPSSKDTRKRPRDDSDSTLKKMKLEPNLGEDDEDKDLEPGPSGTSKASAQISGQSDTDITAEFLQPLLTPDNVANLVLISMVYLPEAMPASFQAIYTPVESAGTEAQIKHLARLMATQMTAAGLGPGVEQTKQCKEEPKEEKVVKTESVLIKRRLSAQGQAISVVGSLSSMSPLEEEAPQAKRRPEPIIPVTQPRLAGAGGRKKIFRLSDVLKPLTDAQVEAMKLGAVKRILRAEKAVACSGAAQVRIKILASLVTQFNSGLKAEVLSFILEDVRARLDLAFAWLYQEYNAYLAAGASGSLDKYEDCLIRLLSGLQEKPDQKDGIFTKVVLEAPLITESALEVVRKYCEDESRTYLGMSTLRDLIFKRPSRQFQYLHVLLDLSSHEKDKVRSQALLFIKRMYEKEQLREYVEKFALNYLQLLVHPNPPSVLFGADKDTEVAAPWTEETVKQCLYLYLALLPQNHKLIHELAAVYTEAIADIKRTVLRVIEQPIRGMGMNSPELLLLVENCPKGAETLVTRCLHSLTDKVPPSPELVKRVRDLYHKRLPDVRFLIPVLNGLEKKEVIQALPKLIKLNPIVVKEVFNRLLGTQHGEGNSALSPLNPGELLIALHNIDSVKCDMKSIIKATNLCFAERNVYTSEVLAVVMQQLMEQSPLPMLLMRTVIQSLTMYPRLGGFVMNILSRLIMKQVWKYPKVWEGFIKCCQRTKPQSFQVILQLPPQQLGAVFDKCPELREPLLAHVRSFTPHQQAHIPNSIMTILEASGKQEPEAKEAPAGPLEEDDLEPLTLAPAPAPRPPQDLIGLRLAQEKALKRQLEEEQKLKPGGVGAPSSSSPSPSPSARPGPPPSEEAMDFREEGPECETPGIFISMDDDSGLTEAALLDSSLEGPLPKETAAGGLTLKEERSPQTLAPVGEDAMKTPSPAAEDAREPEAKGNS

In the first experiment the parent is B1. To be noted: with cstf2_human CSTF2, P33240.
For R543A, the “effect of a mutation on the interaction” value is “disrupting interaction”.

Another experiment covers variants of B2. To be noted: with sympk_human SYMPK.
As for H67A, the “effect of a mutation on the interaction” value is listed as “decreasing interaction”.
